The target of the assay is NL2HA-S714A (human) (UniProt Q8NFZ4). The assay is described as follows: co-IP.
Sequence of UniProt Q8NFZ4 (Q8NFZ4 15-835, stated change not applied): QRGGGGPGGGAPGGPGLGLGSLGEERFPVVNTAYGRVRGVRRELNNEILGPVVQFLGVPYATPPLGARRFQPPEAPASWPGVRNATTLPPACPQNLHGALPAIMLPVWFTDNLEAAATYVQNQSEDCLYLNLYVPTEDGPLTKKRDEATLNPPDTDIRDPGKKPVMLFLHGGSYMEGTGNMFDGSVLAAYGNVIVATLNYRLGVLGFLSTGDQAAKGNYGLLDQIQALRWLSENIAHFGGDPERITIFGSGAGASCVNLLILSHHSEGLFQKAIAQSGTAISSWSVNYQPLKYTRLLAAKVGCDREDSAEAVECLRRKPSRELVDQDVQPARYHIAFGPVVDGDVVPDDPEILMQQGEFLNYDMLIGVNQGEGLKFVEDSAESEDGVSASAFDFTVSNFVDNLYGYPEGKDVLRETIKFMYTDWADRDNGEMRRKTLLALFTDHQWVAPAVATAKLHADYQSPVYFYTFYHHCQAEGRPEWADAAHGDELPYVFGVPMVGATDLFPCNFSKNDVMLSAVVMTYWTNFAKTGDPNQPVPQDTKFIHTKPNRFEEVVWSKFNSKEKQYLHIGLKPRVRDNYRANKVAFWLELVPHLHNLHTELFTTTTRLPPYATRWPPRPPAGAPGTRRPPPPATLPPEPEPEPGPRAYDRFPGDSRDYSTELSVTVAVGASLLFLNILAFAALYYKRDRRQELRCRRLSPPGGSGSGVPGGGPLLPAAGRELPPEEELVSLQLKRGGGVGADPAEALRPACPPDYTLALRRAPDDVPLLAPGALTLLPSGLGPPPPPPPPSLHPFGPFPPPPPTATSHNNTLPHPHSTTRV

B1: gephyrin-FLAG (natural protein)
chain: MATEGMILTNHDHQIRVGVLTVSDSCFRNLAEDRSGINLKDLVQDPSLLGGTISAYKIVPDEIEEIKETLIDWCDEKELNLILTTGGTGFAPRDVTPEATKEVIEREAPGMALAMLMGSLNVTPLGMLSRPVCGIRGKTLIINLPGSKKGSQECFQFILPALPHAIDLLRDAIVKVKEVHDELEDLPSPPPPLSPPPTTSPHKQTEDKGVQCEEEEEEKKDSGVASTEDSSSSHITAAALAAKIPDSIISRGVQVLPRDTASLSTTPSESPRAQATSRLSTASCPTPKVQSRCSSKENILRASHSAVDITKVARRHRMSPFPLTSMDKAFITVLEMTPVLGTEIINYRDGMGRVLAQDVYAKDNLPPFPASVKDGYAVRAADGPGDRFIIGESQAGEQPTQTVMPGQVMRVTTGAPIPCGADAVVQVEDTELIRESDDGTEELEVRILVQARPGQDIRPIGHDIKRGECVLAKGTHMGPSEIGLLATVGVTEVEVNKFPVVAVMSTGNELLNPEDDLLPGKIRDSNRSTLLATIQEHGYPTINLGIVGDNPDDLLNALNEGISRADVIITSGGVSMGEKDYLKQVLDIDLHAQIHFGRVFMKPGLPTTFATLDIDGVRKIIFALPGNPVSAVVTCNLFVVPALRKMQGILDPRPTIIKARLSCDVKLDPRPEYHRCILTWHHQEPLPWAQSTGNQMSSRLMSMRSANGLLMLPPKTEQYVELHKGEVVDVMVIGRL
B1 yielded an increase of co-precipitated gephyrin-FLAG against NL2HA of 140%.
